Molecular target: T1, AsfvAP WT (African swine fever virus, UniProt P0C9C6 1-296)
T1 sequence: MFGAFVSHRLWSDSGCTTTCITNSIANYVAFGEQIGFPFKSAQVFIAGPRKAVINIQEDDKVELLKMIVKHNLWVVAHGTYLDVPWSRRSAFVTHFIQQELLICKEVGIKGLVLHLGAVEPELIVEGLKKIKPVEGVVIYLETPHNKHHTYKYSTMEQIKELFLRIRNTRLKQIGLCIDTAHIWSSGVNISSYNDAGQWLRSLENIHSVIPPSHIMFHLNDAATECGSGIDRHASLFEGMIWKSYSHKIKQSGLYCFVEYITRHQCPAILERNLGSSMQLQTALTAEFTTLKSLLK
Assay: X-ray crystallography
Details: protein: recombinant; tags: His-SUMO removed with Ulp1; GSGGG linker encoded before M1

B1: DNA-2 (dsDNA)
DNA 1: GCAGCGTCACCGACGAAA
DNA 2: CCTCGTCGGGGACGCTGC
B1: binds.
